Target: 人IL-11Rα (全长基因, stably expressed on STAT3-luc HEK293 cells) (human) (UniProt Q14626)
Test: cell-based or functional assay

Sequence of UniProt Q14626 (Q14626 23-422): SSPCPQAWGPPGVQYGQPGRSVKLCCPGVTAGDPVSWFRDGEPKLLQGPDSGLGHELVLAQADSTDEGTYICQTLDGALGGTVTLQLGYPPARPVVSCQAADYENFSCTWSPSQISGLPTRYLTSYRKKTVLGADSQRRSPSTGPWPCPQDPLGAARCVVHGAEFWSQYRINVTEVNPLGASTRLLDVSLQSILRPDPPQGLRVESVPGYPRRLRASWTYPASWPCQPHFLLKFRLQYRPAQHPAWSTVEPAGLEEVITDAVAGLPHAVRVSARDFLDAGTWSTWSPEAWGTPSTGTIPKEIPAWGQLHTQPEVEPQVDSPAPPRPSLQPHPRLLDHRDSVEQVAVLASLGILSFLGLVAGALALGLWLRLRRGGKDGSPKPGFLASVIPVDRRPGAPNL

- IL-11刺激STAT3报告基因转录表达的EC50: 0.11 ng/mL
Substance: IL-11 (ligand)

Source: patent CN116510007A
